Patent US20150216795A1 (SANOFI, priority 2012, published 2015)

Columns and labels:
[1] = test system: patients with metastatic colorectal cancer (MCRC)
From the text: Each randomized patient was to be treated until disease progression, death, or unacceptable toxicity.
Treatment arms were evenly balanced for demographics, disease characteristics and prior anti-cancer treatments, including prior exposition to bevacizumab.
Patients received a median of 9 cycles of ZALTRAP/FOLFIRI or 8 cycles of placebo/FOLFIRI.

[2] = test system: patients with metastatic colorectal cancer (MCRC); test: EFC10262 (VELOUR) randomized double-blind phase 3 study: efficacy (OS, PFS, response rate);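 further: Placebo-controlled comparison, both arms on FOLFIRI every 2 weeks until progression or intolerable toxicity, in patients progressing on or within 6 months after oxaliplatin-based combination chemotherapy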
From the text: Each randomized patient was to be treated until disease progression, death, or unacceptable toxicity. […] The predefined statistical significance level for this final analysis was 0.0466 after adjusting the type I error spent for the two interim analyses using the O'Brien-Fleming spending function.
The study included one formal interim analysis, planned for the purpose of efficacy, when 561 death events (65% information time) had occurred. Upon request of the independent Data Monitoring Committee (DMC), an additional interim analysis of OS was performed to provide an early evaluation of the benefit-risk ratio, when 315 death events (36.5% information fraction) had occurred.
A total of approximately 863 deaths were required to detect 20% hazard rate reduction in OS with 90% power using the two-sided log rank test at an overall 0.0499 alpha level. The median survival times was expected to be 11 months for the control group. The overall alpha level was split between overall survival (0.0499) and progression-free survival as a secondary efficacy endpoint (0.0001).
Approximately 1200 patients (i.e. 600 patients per treatment group) were planned to be randomized. Treatment assignment was stratified according to prior therapy with bevacizumab (yes or no), and ECOG performance status (PS) (0 vs 1 vs 2).
The enrolment started in November 2007 and was completed in March 2010. A total of 1226 patients were randomized. […] Treatment arms were evenly balanced for demographics, disease characteristics and prior anti-cancer treatments, including prior exposition to bevacizumab.
Immediately after, patients received irinotecan, 5-FU and leucovorin (FOLFIRI regimen). This treatment was repeated every 2 weeks.
Study 1 was a randomized, double-blind, placebo-controlled study in patients with metastatic colorectal cancer (mCRC) who are resistant to or have progressed during or within 6 months of receiving oxaliplatin-based combination chemotherapy, with or without prior bevacizumab. A total of 1226 patients were randomized (1:1) to receive either ZALTRAP (N=612; 4 mg per kg as a 1 hour intravenous infusion on day 1) or placebo (N=614), in combination with 5-fluorouracil plus irinotecan [FOLFIRI: irinotecan 180 mg per m2 IV infusion over 90 minutes and leucovorin (dl racemic) 400 mg per m^2 intravenous infusion over 2 hours at the same time on day 1 using a Y-line, followed by 5-FU 400 mg per m^2 intravenous bolus, followed by 5-FU 2400 mg per m^2 continuous intravenous infusion over 46-hours]. The treatment cycles on both arms were repeated every 2 weeks. Patients were treated until disease progression or unacceptable toxicity. The primary efficacy endpoint was overall survival. Treatment assignment was stratified by the ECOG performance status (0 versus 1 versus 2) and according to prior therapy with bevacizumab (yes or no).

[3] = adverse reaction, N = 611, listed as ZALTRAP/FOLFIRI
[4] = compilation of clinical and laboratory data, N = 611, listed as ZALTRAP/FOLFIRI
[5] = Kaplan-Meier, IRC, ITT population
[6] = by IRC, evaluable patient population N = 531
[7] = overall survival, Kaplan-Meier, ITT population

For “Ziv-aflibercept/Folfiri: ziv-aflibercept 4 mg/kg in combination with FOLFIRI (folinic acid, 5-fluorouracil and irinotecan) given intravenously every 2 weeks”, the “Grade 4 hypertension (hypertensive crisis)” value ([1]; 1 patient) was 0.2%, the “Grade 3 compromised wound healing” value ([1]; 2 patients) was 0.3% and the Nephrotic syndrome ([1]; 2 patients) was 0.5%. For the same substance, the “fistulas (anal, enterovesical, enterocutaneous, colovaginal, intestinal sites)” value ([1]; 9 of 611 patients with mCRC) was 1.5%, the “Grade 3-4 ATE” value ([1]; 11 patients) was 1.8% and the “Patients with any TEAE” value ([1]; Safety population N = 611) was 606 (99.2%) number (%) of patients. The “Patients with any TEAE leading to death” value ([1]; Safety population N = 611) was 37 (6.1%) number (%) of patients, the “Patients with any TEAE leading to permanent treatment discontinuation” value ([1]; Safety population N = 611) was 164 (26.8%) number (%) of patients and the “Patients with any TEAE leading to premature treatment discontinuation” value ([1]; Safety population N = 611) was 119 (19.5%) number (%) of patients. The “Patients with any grade 3-4 TEAE” value ([1]; Safety population N = 611) was 510 (83.5%) number (%) of patients, the “Patients with any related TEAE leading to death” value ([1]; Safety population N = 611) was 6 (1.0%) number (%) of patients and the “Patients with any serious TEAE” value ([1]; Safety population N = 611) was 294 (48.1%) number (%) of patients. The “Cycle delays >7 days” value ([1]; Study 1) was 60 % of patients, the “Infections, Grade 3-4” value ([1]; Study 1) was 12% and the “Infections, all grades” value ([1]; Study 1) was 46%. The “Alopecia (PT), All Gr” value ([1]; TEAE, safety population) was 26.8 % of patients, the “Asthenic condition (HLT), All Gr” value ([1]; TEAE, safety population) was 60.4 % of patients and the “Asthenic condition (HLT), Gr 3/4” value ([1]; TEAE, safety population) was 16.9 % of patients. The “Constipation (PT), All Gr” value ([1]; TEAE, safety population) was 22.4 % of patients, the “Constipation (PT), Gr 3/4” value ([1]; TEAE, safety population) was 0.8 % of patients and the “Decrease appetite (PT), All Gr” value ([1]; TEAE, safety population) was 31.9 % of patients. The “Decrease appetite (PT), Gr 3/4” value ([1]; TEAE, safety population) was 3.4 % of patients, the “Dehydration (PT), All Gr” value ([1]; TEAE, safety population) was 9.0 % of patients and the “Diarrhea (PT), All Gr” value ([1]; TEAE, safety population) was 69.2 % of patients. For the same substance, the “Dysphonia (PT), All Gr” value ([1]; TEAE, safety population) was 25.4 % of patients, the “Epistaxis (PT), All Gr” value ([1]; TEAE, safety population) was 27.7 % of patients and the “GI and abdominal pains (HLT), All Gr” value ([1]; TEAE, safety population) was 34.0 % of patients. The “GI and abdominal pains (HLT), Gr 3/4” value ([1]; TEAE, safety population) was 5.4 % of patients, the “Headache (PT), All Gr” value ([1]; TEAE, safety population) was 22.3 % of patients and the “Hypertension (grouping), All Gr” value ([1]; TEAE, safety population) was 41.4 % of patients. For the same substance, the “Hypertension (grouping), Gr 3/4” value ([1]; TEAE, safety population) was 19.3 % of patients, the “Infections (SOC), All Gr” value ([1]; TEAE, safety population) was 46.2 % of patients and the “Musculoskeletal & connective pain & discomfort (HLT), All Gr” value ([1]; TEAE, safety population) was 23.1 % of patients. The “Musculoskeletal & connective pain & discomfort (HLT), Gr 3/4” value ([1]; TEAE, safety population) was 1.3 % of patients, the “Nausea (PT), All Gr” value ([1]; TEAE, safety population) was 53.4 % of patients and the “Palmar plantar erythrodysaesthesia (PT), All Gr” value ([1]; TEAE, safety population) was 11.0 % of patients. The “Palmar plantar erythrodysaesthesia (PT), Gr 3/4” value ([1]; TEAE, safety population) was 2.8 % of patients, the “Skin hyperpigmentation (PT), All Gr” value ([1]; TEAE, safety population) was 8.2 % of patients and the “Skin hyperpigmentation (PT), Gr 3/4” value ([1]; TEAE, safety population) was 0 % of patients. The “Stomatitis & ulceration (HLT), All Gr” value ([1]; TEAE, safety population) was 54.8 % of patients, the “Stomatitis & ulceration (HLT), Gr 3/4” value ([1]; TEAE, safety population) was 13.7 % of patients and the “Vomiting (PT), All Gr” value ([1]; TEAE, safety population) was 32.9 % of patients. For the same substance, the “Weight decrease (PT), All Gr” value ([1]; TEAE, safety population) was 31.9 % of patients, the “Weight decrease (PT), Gr 3/4” value ([1]; TEAE, safety population) was 2.6 % of patients and the “Abdominal Pain Upper, All grades” value ([1]; adverse reaction, N = 611) was 11%. For the same substance, the “Abdominal Pain Upper, Grades 3-4” value ([1]; adverse reaction, N = 611) was 1%, the “Abdominal Pain, All grades” value ([1]; adverse reaction, N = 611) was 27% and the “Abdominal Pain, Grades 3-4” value ([1]; adverse reaction, N = 611) was 4%. The “Asthenia, All grades” value ([1]; adverse reaction, N = 611) was 18%, the “Asthenia, Grades 3-4” value ([1]; adverse reaction, N = 611) was 5% and the “Decreased Appetite, All grades” value ([1]; adverse reaction, N = 611) was 32%. The “Decreased Appetite, Grades 3-4” value ([1]; adverse reaction, N = 611) was 3%, the “Dehydration, All grades” value ([1]; adverse reaction, N = 611) was 9% and the “Diarrhea, All grades” value ([1]; adverse reaction, N = 611) was 69%. For the same substance, the “Dysphonia, All grades” value ([1]; adverse reaction, N = 611) was 25%, the “Dyspnea, All grades” value ([1]; adverse reaction, N = 611) was 12% and the “Epistaxis, All grades” value ([1]; adverse reaction, N = 611) was 28%. For the same substance, the “Fatigue, All grades” value ([1]; adverse reaction, N = 611) was 48%, the “Fatigue, Grades 3-4” value ([1]; adverse reaction, N = 611) was 13% and the “Headache, All grades” value ([1]; adverse reaction, N = 611) was 22%. For the same substance, the “Headache, Grades 3-4” value ([1]; adverse reaction, N = 611) was 2%, the “Hemorrhoids, All grades” value ([1]; adverse reaction, N = 611) was 6% and the “Hemorrhoids, Grades 3-4” value ([1]; adverse reaction, N = 611) was 0%. The “Hypertension, All grades” value ([1]; adverse reaction, N = 611) was 41%, the “Hypertension, Grades 3-4” value ([1]; adverse reaction, N = 611) was 19% and the “Leukopenia, All grades” value ([1]; adverse reaction, N = 611) was 78%. The “Leukopenia, Grades 3-4” value ([1]; adverse reaction, N = 611) was 16%, the “Neutropenia, All grades” value ([1]; adverse reaction, N = 611) was 67% and the “Oropharyngeal Pain, All grades” value ([1]; adverse reaction, N = 611) was 8%. The “Palmar-Plantar Erythrodysesthesia Syndrome, All grades” value ([1]; adverse reaction, N = 611) was 11%, the “Palmar-Plantar Erythrodysesthesia Syndrome, Grades 3-4” value ([1]; adverse reaction, N = 611) was 3% and the “Proctalgia, All grades” value ([1]; adverse reaction, N = 611) was 5%. For the same substance, the “Rectal Hemorrhage, All grades” value ([1]; adverse reaction, N = 611) was 5%, the “Rhinorrhea, All grades” value ([1]; adverse reaction, N = 611) was 6% and the “Rhinorrhea, Grades 3-4” value ([1]; adverse reaction, N = 611) was 0%. The “Skin Hyperpigmentation, All grades” value ([1]; adverse reaction, N = 611) was 8%, the “Skin Hyperpigmentation, Grades 3-4” value ([1]; adverse reaction, N = 611) was 0% and the “Stomatitis, All grades” value ([1]; adverse reaction, N = 611) was 50%. For the same substance, the “Stomatitis, Grades 3-4” value ([1]; adverse reaction, N = 611) was 13%, the “Thrombocytopenia, All grades” value ([1]; adverse reaction, N = 611) was 48% and the “Thrombocytopenia, Grades 3-4” value ([1]; adverse reaction, N = 611) was 3%. The “Urinary Tract Infection, All grades” value ([1]; adverse reaction, N = 611) was 9%, the “Weight decreased, All grades” value ([1]; adverse reaction, N = 611) was 32% and the “Weight decreased, Grades 3-4” value ([1]; adverse reaction, N = 611) was 3%. The “Dehydration, Grades 3-4” value [1, 3] was 4%, the “Diarrhea, Grades 3-4” value [1, 3] was 19% and the “Neutropenia, Grades 3-4” value [1, 3] was 37%. The “onset of Grade 3-4 hypertension during the first two cycles of treatment” value ([1]; among patients developing Grade 3-4 hypertension) was 54%, the “Proteinuria, All grades” value [1, 4] was 62% and the “Proteinuria, Grades 3-4” value [1, 4] was 8%. For the same substance, the “Grade 3-4 hemorrhagic events” value ([1]; including gastrointestinal hemorrhage, hematuria, post-procedural hemorrhage) was 3%, the “ALT increased, All grades” value ([1]; laboratory finding, N = 611) was 50% and the “ALT increased, Grades 3-4” value ([1]; laboratory finding, N = 611) was 3%. The “AST increased, All grades” value ([1]; laboratory finding, N = 611) was 62%, the “AST increased, Grades 3-4” value ([1]; laboratory finding, N = 611) was 3% and the “Serum creatinine increased, All grades” value ([1]; laboratory finding, N = 611) was 23%. The “Serum creatinine increased, Grades 3-4” value ([1]; laboratory finding, N = 611) was 0%, the “Arterial thromboembolic events (ATE)” value ([1]; patients with mCRC) was 2.6% and the “Grade 3-4 VTE” value ([1]; patients with mCRC) was 8%. For the same substance, the “Grade 3-4 febrile neutropenia” value ([1]; patients with mCRC) was 4%, the “Grade 3-4 neutropenic infection/sepsis” value ([1]; patients with mCRC) was 1.5% and the “Grade 3 hypertension” value ([1]; patients with mCRC) was 19%. For the same substance, the Pulmonary embolism ([1]; patients with mCRC) was 5%, the “bleeding/hemorrhage (all grades)” value ([1]; patients with mCRC) was 38% and the severe hypersensitivity reactions ([1]; patients with mCRC) was 0.3%. The “venous thromboembolic events (VTE)” value ([1]; patients with mCRC) was 9%, the “PFS, Probability of surviving (99.99% CI), 3 months” value [2, 5] was 0.793 and the “PFS, Probability of surviving (99.99% CI), 6 months” value [2, 5] was 0.573. The “PFS, Probability of surviving (99.99% CI), 9 months” value [2, 5] was 0.313, the “PFS, Probability of surviving (99.99% CI), 12 months” value [2, 5] was 0.166 and the “PFS, Probability of surviving (99.99% CI), 18 months” value [2, 5] was 0.051. The “Progression Free Survival: Number of events, n (%)” value ([2]; Study 1, IRC) was 393 (64.2%) n (%), the “Overall Survival: Number of deaths, n (%)” value ([2]; Study 1, N = 612) was 403 (65.8%) n (%) and the “Best Overall Response: Not evaluable, %” value [2, 6] was “(4.0%)”. The “Best Overall Response: Partial response, %” value [2, 6] was “(19.8%)”, the “Best Overall Response: Progressive disease, %” value [2, 6] was “(10.4%)” and the “Best Overall Response: Stable disease, %” value [2, 6] was “(65.9%)”. The “Overall Response: Responders (Complete response or Partial response), %” value [2, 6] was “(19.8%)”, the “Survival probability (95.34% CI), 3 months” value [2, 7] was 0.931 and the “Survival probability (95.34% CI), 6 months” value [2, 7] was 0.819. The “Survival probability (95.34% CI), 9 months” value [2, 7] was 0.687, the “Survival probability (95.34% CI), 12 months” value [2, 7] was 0.561 and the “Survival probability (95.34% CI), 18 months” value [2, 7] was 0.385. For the same substance, the “Survival probability (95.34% CI), 24 months” value [2, 7] was 0.280, the “overall survival HR (95% CI)” value ([2]; patients who received prior bevacizumab) was 0.86 and the “overall survival HR (95% CI)” value ([2]; patients without prior bevacizumab exposure) was 0.79.
